Laboratory results from IntAct's records for PubMed 29892012.

B1: Angio-associated migratory cell protein (Homo sapiens), Q13685 (parent)
chain: MESESESGAAADTPPLETLSFHGDEEIIEVVELDPGPPDPDDLAQEMEDVDFEEEEEEEGNEEGWVLEPQEGVVGSMEGPDDSEVTFALHSASVFCVSLDPKTNTLAVTGGEDDKAFVWRLSDGELLFECAGHKDSVTCAGFSHDSTLVATGDMSGLLKVWQVDTKEEVWSFEAGDLEWMEWHPRAPVLLAGTADGNTWMWKVPNGDCKTFQGPNCPATCGRVLPDGKRAVVGYEDGTIRIWDLKQGSPIHVLKGTEGHQGPLTCVAANQDGSLILTGSVDCQAKLVSATTGKVVGVFRPETVASQPSLGEGEESESNSVESLGFCSVMPLAAVGYLDGTLAIYDLATQTLRHQCQHQSGIVQLLWEAGTAVVYTCSLDGIVRLWDARTGRLLTDYRGHTAEILDFALSKDASLVVTTSGDHKAKVFCVQRPDR
partner: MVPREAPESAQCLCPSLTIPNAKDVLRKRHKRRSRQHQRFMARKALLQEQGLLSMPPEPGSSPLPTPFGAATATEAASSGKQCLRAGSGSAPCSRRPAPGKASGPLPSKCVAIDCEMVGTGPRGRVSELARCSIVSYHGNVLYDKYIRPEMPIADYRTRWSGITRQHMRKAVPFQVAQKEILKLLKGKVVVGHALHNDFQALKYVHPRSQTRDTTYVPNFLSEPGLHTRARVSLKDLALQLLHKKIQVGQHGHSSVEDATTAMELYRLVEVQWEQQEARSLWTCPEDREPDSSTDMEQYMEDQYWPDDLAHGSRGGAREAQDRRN
B2: Acetylcholine receptor subunit gamma (Homo sapiens), P07510 (parent)
chain: MHGGQGPLLLLLLLAVCLGAQGRNQEERLLADLMQNYDPNLRPAERDSDVVNVSLKLTLTNLISLNEREEALTTNVWIEMQWCDYRLRWDPRDYEGLWVLRVPSTMVWRPDIVLENNVDGVFEVALYCNVLVSPDGCIYWLPPAIFRSACSISVTYFPFDWQNCSLIFQSQTYSTNEIDLQLSQEDGQTIEWIFIDPEAFTENGEWAIQHRPAKMLLDPAAPAQEAGHQKVVFYLLIQRKPLFYVINIIAPCVLISSVAILIHFLPAKAGGQKCTVAINVLLAQTVFLFLVAKKVPETSQAVPLISKYLTFLLVVTILIVVNAVVVLNVSLRSPHTHSMARGVRKVFLRLLPQLLRMHVRPLAPAAVQDTQSRLQNGSSGWSITTGEEVALCLPRSELLFQQWQRQGLVAAALEKLEKGPELGLSQFCGSLKQAAPAIQACVEACNLIACARHQQSHFDNGNEEWFLVGRVLDRVCFLAMLSLFICGTAGIFLMAHYNRVPALPFPGDPRPYLPSPD
partner: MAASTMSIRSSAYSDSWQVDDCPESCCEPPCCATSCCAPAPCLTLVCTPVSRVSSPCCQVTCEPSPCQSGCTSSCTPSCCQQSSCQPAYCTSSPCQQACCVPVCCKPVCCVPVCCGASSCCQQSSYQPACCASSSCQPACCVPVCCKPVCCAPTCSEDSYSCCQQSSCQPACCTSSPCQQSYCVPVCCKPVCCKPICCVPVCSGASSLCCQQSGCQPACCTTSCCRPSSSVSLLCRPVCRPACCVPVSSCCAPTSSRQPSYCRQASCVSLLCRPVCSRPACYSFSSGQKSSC
B3: Acetylcholine receptor subunit gamma (Homo sapiens), P07510 (parent)
chain: B2 chain

Variants of: B1
Settings: with aen_human AEN

Variant	effect of a mutation on the interaction
MESESESGAAADTPPLETLSFHGDEEIIEVVELDPGPPDPDDLAQEMEDVDFEEEEEEEGNEEGWVLEPQEGVVGSMEGPDDSEVTFALHSASVFCVSLDPKTNTLAVTGGEDDKAFVWRLSDGELLFECAGHKDSVTCAGFSHDSTLVATGDMSGLLKVWQVDTKEEVWSFEAGDLEWMEWHPRAPVLLAGTADGNTWMWKVPNGDCKTFQGPNCPATCGRVLPDGKRAVVGYEDGTIRIWDLKQGSPIHVLKGTEGHQGPLTCVAANQDGSLILTGSVDCQAKLVSATTGKVVGVFRPETVASQPSLGEGEESESNSVESLGFCSVMPLAAVGYLDGTLAFYDLATQTLRHQCQHQSGIVQLLWEAGTAVVYTCSLDGIVRLWDARTGRLLTDYRGHTAEILDFALSKDASLVVTTSGDHKAKVFCVQRPDR [I343F]	with no effect

Variants of: B2
Settings: with kr109_human KRTAP10-9, P60411

Variant	effect of a mutation on the interaction
MHGGQGPLLLLLLLAVCLGAQGRNQEERLLADLMQNYDPNLRPAERDSDVVNVSLKLTLTNLISLNEREEALTTNVWIEMQWCDYRLRWDPRDYEGLWVLRVPSTMVWRPDIVLENNVDGVFEVALYCNVLVSPDGCIYWLPPAIFRSACSISVTYFPFDWQNCSLIFQSQTYSTNEIDLQLSQEDGQTIEWIFIDPEAFTENGEWAIQHRPAKMLLDPAAPAQEAGHQKVVFYLLIQRKPLFYVINIIAPCVLISSVAILIHFLPAKAGGQKCTVAINVLLAQTVFLFLVAKKVPETSQAVPLISKYLTFLLVVTILIVVNAVVVLNVSLRSPHTHSMARGVRKVFLRLLPQLLRMHVRPLAPAAVQDTQSRLQNGSSGWSITTGEEVALCLPRSELLFQQWQRQGLVAAALEKLEKGPELGLSQFCGSLKQAAPAIQACVEACNLTACARHQQSHFDNGNEEWFLVGRVLDRVCFLAMLSLFICGTAGIFLMAHYNRVPALPFPGDPRPYLPSPD [I448T]	with no effect

Variants of: B3
Settings: with kr108_human KRTAP10-8, P60410
Sequence of kr108_human KRTAP10-8, P60410 (P60410 whole entry): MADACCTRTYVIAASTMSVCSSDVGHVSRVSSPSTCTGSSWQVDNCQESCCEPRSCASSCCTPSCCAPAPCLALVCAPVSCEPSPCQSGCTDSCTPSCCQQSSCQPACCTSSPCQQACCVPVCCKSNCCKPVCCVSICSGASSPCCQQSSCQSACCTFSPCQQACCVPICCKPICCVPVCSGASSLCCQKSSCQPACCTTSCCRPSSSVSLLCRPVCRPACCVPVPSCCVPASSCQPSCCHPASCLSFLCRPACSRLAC

Variant	effect of a mutation on the interaction
MHGGQGPLLLLLLLAVCLGAQGRNQEERLLADLMQNYDPNLRPAERDSDVVNVSLKLTLTNLISLNEREEALTTNVWIEMQWCDYRLRWDPRDYEGLWVLRVPSTMVWRPDIVLENNVDGVFEVALYCNVLVSPDGCIYWLPPAIFRSACSISVTYFPFDWQNCSLIFQSQTYSTNEIDLQLSQEDGQTIEWIFIDPEAFTENGEWAIQHRPAKMLLDPAAPAQEAGHQKVVFYLLIQRKPLFYVINIIAPCVLISSVAILIHFLPAKAGGQKCTVAINVLLAQTVFLFLVAKKVPETSQAVPLISKYLTFLLVVTILIVVNAVVVLNVSLRSPHTHSMARGVRKVFLRLLPQLLRMHVRPLAPAAVQDTQSRLQNGSSGWSITTGEEVALCLPRSELLFQQWQRQGLVAAALEKLEKGPELGLSQFCGSLKQAAPAIQACVEACNLTACARHQQSHFDNGNEEWFLVGRVLDRVCFLAMLSLFICGTAGIFLMAHYNRVPALPFPGDPRPYLPSPD [I448T]	with no effect

Variants of: B3
Settings: with kr103_human KRTAP10-3, P60369
Sequence of kr103_human KRTAP10-3, P60369 (P60369 whole entry): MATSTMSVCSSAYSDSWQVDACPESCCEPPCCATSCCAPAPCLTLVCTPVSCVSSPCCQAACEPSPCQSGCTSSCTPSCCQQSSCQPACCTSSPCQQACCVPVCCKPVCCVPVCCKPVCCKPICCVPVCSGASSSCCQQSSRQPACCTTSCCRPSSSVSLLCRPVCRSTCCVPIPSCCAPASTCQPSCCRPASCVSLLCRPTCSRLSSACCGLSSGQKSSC

Variant	effect of a mutation on the interaction
MHGGQGPLLLLLLLAVCLGAQGRNQEERLLADLMQNYDPNLRPAERDSDVVNVSLKLTLTNLISLNEREEALTTNVWIEMQWCDYRLRWDPRDYEGLWVLRVPSTMVWRPDIVLENNVDGVFEVALYCNVLVSPDGCIYWLPPAIFRSACSISVTYFPFDWQNCSLIFQSQTYSTNEIDLQLSQEDGQTIEWIFIDPEAFTENGEWAIQHRPAKMLLDPAAPAQEAGHQKVVFYLLIQRKPLFYVINIIAPCVLISSVAILIHFLPAKAGGQKCTVAINVLLAQTVFLFLVAKKVPETSQAVPLISKYLTFLLVVTILIVVNAVVVLNVSLRSPHTHSMARGVRKVFLRLLPQLLRMHVRPLAPAAVQDTQSRLQNGSSGWSITTGEEVALCLPRSELLFQQWQRQGLVAAALEKLEKGPELGLSQFCGSLKQAAPAIQACVEACNLTACARHQQSHFDNGNEEWFLVGRVLDRVCFLAMLSLFICGTAGIFLMAHYNRVPALPFPGDPRPYLPSPD [I448T]	with no effect

Variants of: B3
Settings: with k1h1_human KRT31, Q15323
Sequence of k1h1_human KRT31, Q15323 (Q15323 whole entry): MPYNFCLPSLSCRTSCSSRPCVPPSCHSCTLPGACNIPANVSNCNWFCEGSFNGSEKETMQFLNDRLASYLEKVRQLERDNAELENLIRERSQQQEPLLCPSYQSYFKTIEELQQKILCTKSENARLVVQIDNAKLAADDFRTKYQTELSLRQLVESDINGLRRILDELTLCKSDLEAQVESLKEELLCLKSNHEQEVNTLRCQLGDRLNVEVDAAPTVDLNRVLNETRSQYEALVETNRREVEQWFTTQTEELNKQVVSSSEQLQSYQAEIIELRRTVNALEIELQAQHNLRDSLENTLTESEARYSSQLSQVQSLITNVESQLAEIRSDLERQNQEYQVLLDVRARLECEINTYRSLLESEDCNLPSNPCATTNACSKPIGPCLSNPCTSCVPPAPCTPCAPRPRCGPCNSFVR

Variant	effect of a mutation on the interaction
MHGGQGPLLLLLLLAVCLGAQGRNQEERLLADLMQNYDPNLRPAERDSDVVNVSLKLTLTNLISLNEREEALTTNVWIEMQWCDYRLRWDPRDYEGLWVLRVPSTMVWRPDIVLENNVDGVFEVALYCNVLVSPDGCIYWLPPAIFRSACSISVTYFPFDWQNCSLIFQSQTYSTNEIDLQLSQEDGQTIEWIFIDPEAFTENGEWAIQHRPAKMLLDPAAPAQEAGHQKVVFYLLIQRKPLFYVINIIAPCVLISSVAILIHFLPAKAGGQKCTVAINVLLAQTVFLFLVAKKVPETSQAVPLISKYLTFLLVVTILIVVNAVVVLNVSLRSPHTHSMARGVRKVFLRLLPQLLRMHVRPLAPAAVQDTQSRLQNGSSGWSITTGEEVALCLPRSELLFQQWQRQGLVAAALEKLEKGPELGLSQFCGSLKQAAPAIQACVEACNLTACARHQQSHFDNGNEEWFLVGRVLDRVCFLAMLSLFICGTAGIFLMAHYNRVPALPFPGDPRPYLPSPD [I448T]	with no effect

Variants of: B3
Settings: with nt2na_human NOTCH2NLA

Variant	effect of a mutation on the interaction
MHGGQGPLLLLLLLAVCLGAQGRNQEERLLADLMQNYDPNLRPAERDSDVVNVSLKLTLTNLISLNEREEALTTNVWIEMQWCDYRLRWDPRDYEGLWVLRVPSTMVWRPDIVLENNVDGVFEVALYCNVLVSPDGCIYWLPPAIFRSACSISVTYFPFDWQNCSLIFQSQTYSTNEIDLQLSQEDGQTIEWIFIDPEAFTENGEWAIQHRPAKMLLDPAAPAQEAGHQKVVFYLLIQRKPLFYVINIIAPCVLISSVAILIHFLPAKAGGQKCTVAINVLLAQTVFLFLVAKKVPETSQAVPLISKYLTFLLVVTILIVVNAVVVLNVSLRSPHTHSMARGVRKVFLRLLPQLLRMHVRPLAPAAVQDTQSRLQNGSSGWSITTGEEVALCLPRSELLFQQWQRQGLVAAALEKLEKGPELGLSQFCGSLKQAAPAIQACVEACNLTACARHQQSHFDNGNEEWFLVGRVLDRVCFLAMLSLFICGTAGIFLMAHYNRVPALPFPGDPRPYLPSPD [I448T]	with no effect
